Results reported in publication PMC2268108.

Target: T1, KcsA K+ channel, wild type, P0A334
T1 chain: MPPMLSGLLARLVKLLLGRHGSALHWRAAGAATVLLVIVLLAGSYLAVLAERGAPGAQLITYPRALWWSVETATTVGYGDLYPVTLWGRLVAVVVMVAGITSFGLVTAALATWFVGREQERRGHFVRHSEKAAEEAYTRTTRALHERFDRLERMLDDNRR
Assay: SDS-PAGE of the tetramer
Details: remark: other sources report otherwise

stoichiometry N: 4
B1: KcsA K+ channel, wild type, P0A334 1-160 (natural protein)
chain: MPPMLSGLLARLVKLLLGRHGSALHWRAAGAATVLLVIVLLAGSYLAVLAERGAPGAQLITYPRALWWSVETATTVGYGDLYPVTLWGRLVAVVVMVAGITSFGLVTAALATWFVGREQERRGHFVRHSEKAAEEAYTRTTRALHERFDRLERMLDDNRR
